From publication PMC7610652 (Nature structural & molecular biology, 2021) come the findings set out here.

B1: RPC7α, subunit of the human RNA polymerase III heterotrimer (natural protein)
chain: MAGNKGRGRAAYTFNIEAVGFSKGEKLPDVVLKPPPLFPDTDYKPVPLKTGEGEEYMLALKQELRETMKRMPYFIETPEERQDIERYSKRYMKVYKEEWIPDWRRLPREMMPRNKCKKAGPKPKKAKDAGKGTPLTNTEDVLKKMEELEKRGDGEKSDEENEEKEGSKEKSKEGDDDDDDDAAEQEEYDEEEQEEENDYINSYFEDGDDFGADSDDNMDEATY
B4: RPC4, subunit of the human RNA polymerase III heterodimer (natural protein)
chain: MSEGNAAGEPSTPGGPRPLLTGARGLIGRRPAPPLTPGRLPSIRSRDLTLGGVKKKTFTPNIISRKIKEEPKEEVTVKKEKRERDRDRQREGHGRGRGRPEVIQSHSIFEQGPAEMMKKKGNWDKTVDVSDMGPSHIINIKKEKRETDEETKQILRMLEKDDFLDDPGLRNDTRNMPVQLPLAHSGWLFKEENDEPDVKPWLAGPKEEDMEVDIPAVKVKEEPRDEEEEAKMKAPPKAARKTPGLPKDVSVAELLRELSLTKEEELLFLQLPDTLPGQPPTQDIKPIKTEVQGEDGQVVLIKQEKDREAKLAENACTLADLTEGQVGKLLIRKSGRVQLLLGKVTLDVTMGTACSFLQELVSVGLGDSRTGEMTVLGHVKHKLVCSPDFESLLDHKHR

Common to all, as to assay: cryo-EM structure
The target in assay [1] is T1, RPC1, subunit of human RNA polymerase III (human, UniProt O14802 1-1390).
T1 sequence: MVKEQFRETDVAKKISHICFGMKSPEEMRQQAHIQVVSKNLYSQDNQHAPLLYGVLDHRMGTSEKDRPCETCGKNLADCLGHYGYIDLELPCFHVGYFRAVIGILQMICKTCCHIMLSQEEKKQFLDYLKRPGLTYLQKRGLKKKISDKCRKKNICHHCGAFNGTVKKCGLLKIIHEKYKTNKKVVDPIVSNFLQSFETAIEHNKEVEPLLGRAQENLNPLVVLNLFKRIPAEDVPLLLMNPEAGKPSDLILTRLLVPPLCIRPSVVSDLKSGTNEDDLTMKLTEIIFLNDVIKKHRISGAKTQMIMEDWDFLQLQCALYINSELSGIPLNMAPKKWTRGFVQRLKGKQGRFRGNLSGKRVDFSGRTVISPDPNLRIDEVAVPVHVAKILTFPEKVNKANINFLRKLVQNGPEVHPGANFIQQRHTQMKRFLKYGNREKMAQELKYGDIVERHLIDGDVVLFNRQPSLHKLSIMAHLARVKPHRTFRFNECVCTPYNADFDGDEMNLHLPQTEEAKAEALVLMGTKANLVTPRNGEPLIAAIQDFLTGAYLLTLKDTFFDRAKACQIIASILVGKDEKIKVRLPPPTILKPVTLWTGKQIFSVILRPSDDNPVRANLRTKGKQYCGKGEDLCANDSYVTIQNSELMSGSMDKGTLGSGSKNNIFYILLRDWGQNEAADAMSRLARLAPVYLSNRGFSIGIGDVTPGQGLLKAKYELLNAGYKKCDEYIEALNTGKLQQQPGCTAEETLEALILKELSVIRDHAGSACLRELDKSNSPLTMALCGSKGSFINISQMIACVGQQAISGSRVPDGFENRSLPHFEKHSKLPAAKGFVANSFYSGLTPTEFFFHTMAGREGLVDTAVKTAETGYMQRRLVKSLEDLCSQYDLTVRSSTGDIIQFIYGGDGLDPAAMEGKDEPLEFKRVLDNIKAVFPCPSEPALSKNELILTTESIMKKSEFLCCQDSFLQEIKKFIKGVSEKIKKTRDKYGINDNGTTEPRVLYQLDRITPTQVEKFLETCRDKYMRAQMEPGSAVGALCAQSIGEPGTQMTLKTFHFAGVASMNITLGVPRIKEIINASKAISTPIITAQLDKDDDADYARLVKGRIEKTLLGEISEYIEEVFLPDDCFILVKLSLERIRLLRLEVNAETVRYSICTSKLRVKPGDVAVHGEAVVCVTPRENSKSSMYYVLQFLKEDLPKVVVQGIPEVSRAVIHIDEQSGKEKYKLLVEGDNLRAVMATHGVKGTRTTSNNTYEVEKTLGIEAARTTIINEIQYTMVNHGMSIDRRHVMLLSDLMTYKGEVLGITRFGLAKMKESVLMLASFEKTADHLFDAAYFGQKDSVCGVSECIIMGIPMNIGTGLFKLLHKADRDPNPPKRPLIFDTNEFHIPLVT

For assay [2], the target named is T2, RPC3, subunit of the human RNA polymerase III heterotrimer (human, UniProt Q9BUI4 1-534).
T2 sequence: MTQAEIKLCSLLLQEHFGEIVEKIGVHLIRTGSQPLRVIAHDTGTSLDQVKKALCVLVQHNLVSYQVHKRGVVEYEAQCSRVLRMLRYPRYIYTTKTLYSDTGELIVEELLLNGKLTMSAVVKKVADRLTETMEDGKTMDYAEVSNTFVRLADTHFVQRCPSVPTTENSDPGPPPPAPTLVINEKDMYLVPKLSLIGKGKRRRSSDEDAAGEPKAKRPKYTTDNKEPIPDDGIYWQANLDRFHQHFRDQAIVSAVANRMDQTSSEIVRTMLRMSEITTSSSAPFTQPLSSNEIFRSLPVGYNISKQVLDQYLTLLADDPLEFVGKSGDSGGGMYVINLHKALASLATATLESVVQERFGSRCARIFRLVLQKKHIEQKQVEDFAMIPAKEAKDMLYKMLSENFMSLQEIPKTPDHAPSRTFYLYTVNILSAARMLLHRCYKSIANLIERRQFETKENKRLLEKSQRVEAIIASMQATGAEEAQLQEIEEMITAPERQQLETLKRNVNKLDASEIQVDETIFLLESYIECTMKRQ

In assay [3] the target is T3, RPC5, subunit of the human RNA polymerase III heterodimer (human, UniProt Q9NVU0 1-708).
T3 sequence: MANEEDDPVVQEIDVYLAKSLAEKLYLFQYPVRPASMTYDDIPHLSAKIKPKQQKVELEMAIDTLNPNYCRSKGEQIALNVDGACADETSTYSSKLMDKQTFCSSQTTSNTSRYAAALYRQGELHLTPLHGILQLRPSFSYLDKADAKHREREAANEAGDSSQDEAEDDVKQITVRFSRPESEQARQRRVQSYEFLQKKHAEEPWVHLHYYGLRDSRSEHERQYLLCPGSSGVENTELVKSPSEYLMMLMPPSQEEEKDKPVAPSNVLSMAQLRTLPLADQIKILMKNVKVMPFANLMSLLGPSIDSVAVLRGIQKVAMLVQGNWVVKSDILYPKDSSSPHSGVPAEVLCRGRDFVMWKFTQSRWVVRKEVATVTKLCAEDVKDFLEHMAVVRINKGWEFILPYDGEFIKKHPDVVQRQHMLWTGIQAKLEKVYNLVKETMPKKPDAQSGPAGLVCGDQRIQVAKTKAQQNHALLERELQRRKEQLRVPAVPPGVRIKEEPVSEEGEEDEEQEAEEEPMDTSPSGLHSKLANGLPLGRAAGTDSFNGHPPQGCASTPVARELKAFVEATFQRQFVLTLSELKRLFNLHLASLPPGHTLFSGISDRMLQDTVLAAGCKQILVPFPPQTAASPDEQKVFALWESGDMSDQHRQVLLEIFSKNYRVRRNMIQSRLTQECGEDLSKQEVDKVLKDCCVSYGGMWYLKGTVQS

The target in assay [4] is B4.
Assay [5] addresses B1.

With B1, the binding result in assay [1] and in assay [2] was “binds” in each case.

B2: RPC10, TFIIS-like subunit of human RNA polymerase III (natural protein)
chain: not shown
B2: the binding result in assay [3], in assay [1] and in assay [4] was “binds” throughout.

B3: RPC6, subunit of the human RNA polymerase III heterotrimer (natural protein)
chain: MAEVKVKVQPPDADPVEIENRIIELCHQFPHGITDQVIQNEMPHIEAQQRAVAINRLLSMGQLDLLRSNTGLLYRIKDSQNAGKMKGSDNQEKLVYQIIEDAGNKGIWSRDIRYKSNLPLTEINKILKNLESKKLIKAVKSVAASKKKVYMLYNLQPDRSVTGGAWYSDQDFESEFVEVLNQQCFKFLQSKAETARESKQNPMIQRNSSFASSHEVWKYICELGISKVELSMEDIETILNTLIYDGKVEMTIIAAKEGTVGSVDGHMKLYRAVNPIIPPTGLVRAPCGLCPVFDDCHEGGEISPSNCIYMTEWLEF
As to B3, the binding result in assay [1] and in assay [2] was “binds” throughout.
As for B4, the binding result in assay [3] and in assay [1] was “binds” in each case.

B5: RPC8, stalk subunit of human RNA polymerase III (natural protein)
chain: MFVLVEMVDTVRIPPWQFERKLNDSIAEELNKKLANKVVYNVGLCICLFDITKLEDAYVFPGDGASHTKVHFRCVVFHPFLDEILIGKIKGCSPEGVHVSLGFFDDILIPPESLQQPAKFDEAEQVWVWEYETEEGAHDLYMDTGEEIRFRVVDESFVDTSPTGPSSADATTSSEELPKKEAPYTLVGSISEPGLGLLSWWTSN
Take B5: the binding result in assay [5] was “binds”.
